The target of test [1] is T1, Cry1Ab insecticidal protein (Bacillus thuringiensis, UniProt P0A370 1-615). As to the kind of experiment: Bio-Layer Interferometry, target 15.6 nM to 1 uM.
Test [2] concerns the target T1, Cry1Ab insecticidal protein. As to the kind of experiment: direct ELISA: Cry1Ab coated at 1 ug/ml, RGS-His HRP detection. For orientation: In an ELISA, binding on a coated surface is turned into a signal by an enzyme label.
The target is the same in test [3]. In words: direct ELISA on coated Cry1Ab, RGS-His HRP.
For test [4] the target is unchanged. As to the kind of experiment: direct ELISA, coated protein, SA-AP, 405 nm.
Test [5] deals with Cry1Ab.1Ca insecticidal protein. In words: direct ELISA, coated protein, SA-AP, 405 nm.
Test [6] deals with eCry3.1Ab hybrid insecticidal protein. As to the kind of experiment: direct ELISA, coated protein, SA-AP, 405 nm.
Test [7] has as its target Cry1Aa insecticidal protein (Bacillus thuringiensis subsp. aizawai, UniProt P0A367 12-1176). As to the kind of experiment: direct ELISA, coated protein, SA-AP, 405 nm.
In test [8] the target is Cry1Ai insecticidal protein. In words: direct ELISA, coated protein, SA-AP, 405 nm.
Test [9] has as its target T2, mCry3A insecticidal protein (Bacillus thuringiensis subsp. …, UniProt P0A379 48-644, limits assumed).
T2 construct: also called modified Cry3A
T2 sequence: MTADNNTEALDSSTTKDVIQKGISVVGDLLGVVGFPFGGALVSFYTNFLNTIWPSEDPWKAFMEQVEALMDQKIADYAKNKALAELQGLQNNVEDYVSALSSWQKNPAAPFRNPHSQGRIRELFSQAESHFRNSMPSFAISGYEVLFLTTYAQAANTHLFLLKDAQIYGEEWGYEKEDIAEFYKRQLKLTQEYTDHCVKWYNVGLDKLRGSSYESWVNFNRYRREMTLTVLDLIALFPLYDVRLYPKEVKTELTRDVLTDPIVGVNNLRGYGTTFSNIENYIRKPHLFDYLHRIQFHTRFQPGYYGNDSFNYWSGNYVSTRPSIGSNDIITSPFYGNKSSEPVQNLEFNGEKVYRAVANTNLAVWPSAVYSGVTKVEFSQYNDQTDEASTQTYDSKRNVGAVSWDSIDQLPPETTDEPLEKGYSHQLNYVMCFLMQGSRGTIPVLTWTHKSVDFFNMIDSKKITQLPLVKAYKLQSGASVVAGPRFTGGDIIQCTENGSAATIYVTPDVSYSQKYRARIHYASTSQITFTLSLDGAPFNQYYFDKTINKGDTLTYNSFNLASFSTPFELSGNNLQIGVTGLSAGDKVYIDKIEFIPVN
As to the kind of experiment: direct ELISA: protein coated at 500 ng/ml, 10 nM tagged synNAPS with SA-AP.

Test [10] concerns the target T2, mCry3A insecticidal protein. As to the kind of experiment: Bio-Layer Interferometry, target 15.6 nM to 1 uM. (In general: In BLI a coated tip is dipped into the sample, and binding shifts an interference pattern.)
Test [11] shares this target. In words: direct ELISA: mCry3A coated at 1 ug/ml, RGS-His HRP detection.
Test [12] shares this target. As to the kind of experiment: direct ELISA on coated mCry3A.
Test [13] has as its target eCry3.1Ab hybrid insecticidal protein. As to the kind of experiment: Bio-Layer Interferometry, target 15.6 nM to 1 uM.
Test [14] addresses T2, mCry3A insecticidal protein. As to the kind of experiment: direct ELISA, coated protein, SA-AP, 405 nm.
Test [15] deals with T1, Cry1Ab insecticidal protein. In words: direct ELISA: protein coated at 500 ng/ml, 10 nM tagged synNAPS with SA-AP.
For test [16], the target named is Cry1Ai insecticidal protein. Described as above.

Residue numbers refer to the chain shown, from its start. Names and notes keep the numbering of the source.

B1: synNAPS-4 ligand (designed binder)
chain: MVKVKFKYKGEEKEVDTSKISYVQRAGKSVYFNYDDNGKTGGGRVFEKDAPKELLDMLARAEREKK
Consider B1, for which the binding result in test [1] is listed as “binds”.

B2: synNAPS2 variant R44A (designed binder)
chain: RGSHHHHHHGSMVKVKFKYKGEEKEVDTSKIVWIGRFGKSVYFRYDDNGKTGAGAVYEKDAPKELLDMLARAEREKK
As for B2, the “Binding (OD 450 nm)” value in [2] was found to be 0 OD 450 nm. The binding result in [3] was “no binding”.

B3: synNAPS2 variant Y31A (designed binder)
chain: B2 chain with Y42A, A55R
As to B3, the “Binding (OD 450 nm)” value in test [2] was determined as 0 OD 450 nm. For the same molecule, the binding result in test [3] is “no binding”.

B4: synNAPS2 variant W22A (designed binder)
chain: B2 chain with W33A, A55R
For the molecule B4, the “Binding (OD 450 nm)” value in test [2] was determined as 0 OD 450 nm. The binding result in test [3] is “no binding”.

B5: synNAPS2 variant S29A (designed binder)
chain: B2 chain with S40A, A55R
As for B5, the “Binding (OD 450 nm)” value in test [2] stood at 0 OD 450 nm. Further, the binding result in [3] is on record as “no binding”.

B6: synNAPS-6tag ligand (designed binder)
chain: MRGSHHHHHHGSVKVKFMRWGEEKEVDTSKITYVTRWGKTVIFYYDDNGKKGHGSVLEKDAPKELLDMLARAEREKKLGSGLNDIFEAQKIEWH
modifications: in vivo biotinylation (E. coli BirA strain) on the C-terminal avidin-tag
notes: also called tagged synNAPS 6
In the case of B6, the binding result in [4], in test [5], in [6], in test [7] and in [8] was “no binding (tested: 10 nM)” each time. Further, the “Binding to Insecticidal Protein (read at 405 nm)” value (shortened to “Binding to Insecticidal Protein”) in [9] turned out to be 1.1 absorbance 405 nm.

B7: synNAPS-8 ligand (designed binder)
chain: MVKVKFHGRGEEKEVDTSKIFWVYRDGKRVLFRYDDNGKRGFGSVPEKDAPKELLDMLARAEREKK
Regarding B7, the binding result in [10] is on record as “binds”.

B8: synNAPS-3 ligand (designed binder)
chain: MVKVKFRWGGEEKEVDTSKIWYVARVGKWVLFGYDDNGKRGAGRVREKDAPKELLDMLARAEREKK
B8: the binding result in test [1] is “binds”.

B9: synNAPS-7tag ligand (designed binder)
chain: MRGSHHHHHHGSVKVKFKVHGKEKEVDTSKILAVARWGKAVIFAYDDNGKHGRGQVSEKDAPKELLDMLARAEREKKLGSGLNDIFEAQKIEWH
modifications: in vivo biotinylation (E. coli BirA strain) on the C-terminal avidin-tag
notes: also called tagged synNAPS 7
Turning to B9, the binding result in [4], in [5], in test [6], in test [7] and in test [8] was “no binding (tested: 10 nM)” each time. The “Binding to Insecticidal Protein” value in [9] is 0.7 absorbance 405 nm.

B10: synNAPS9 variant Q8A (designed binder)
chain: RGSHHHHHHGSMVKVKFAAGGEEKEVDTSKIYRVPRHGKIVFFMYDDNGKGGFGHVTEKDAPKELLDMLARAEREKK
Take B10: in test [11], the “Binding (OD 450 nm)” value turned out to be 2.8 OD 450 nm. Also, the “binding affinity as percent of SEQ ID NO:17” value in [12] is about 112%.

B11: synNAPS9 variant T46A (designed binder)
chain: B10 chain with A19Q, T57A
Take B11: in test [11], the “Binding (OD 450 nm)” value amounted to 2.8 OD 450 nm. Also, the “binding affinity as percent of SEQ ID NO:17” value in test [12] is about 112%.

B12: synNAPS9 variant M33A (designed binder)
chain: B10 chain with A19Q, M44A
In the case of B12, in [11], the “Binding (OD 450 nm)” value turned out to be 2.8 OD 450 nm. Moreover, the “binding affinity as percent of SEQ ID NO:17” value in [12] is about 112%.

B13: synNAPS-14 ligand (designed binder)
chain: MVKVKFKYKGEEKEVDTSKIIFVYRFGKFVMFIYDDNGKTGHGDVREKDAPKELLDMLARAEREKK
Consider B13, for which the binding result in test [13] is “binds”.

B14: synNAPS-12 ligand (designed binder)
chain: MVKVKFKLTGEEKEVDTSKIQWVARFGKFVDFLYDDNGKTGWGWVYEKDAPKELLDMLARAEREKK
Turning to B14, the binding result in test [13] is on record as “binds”.

B15: synNAPS-10 ligand (designed binder)
chain: MVKVKFLMKGEEKEVDTSKIKWVNRHGKYVAFYYDDNGKTGGGEVREKDAPKELLDMLARAEREKK
Consider B15, for which the binding result in test [13] is on record as “binds”.

B16: synNAPS-8tag ligand (designed binder)
chain: MRGSHHHHHHGSVKVKFHGRGEEKEVDTSKIFWVYRDGKRVLFRYDDNGKRGFGSVPEKDAPKELLDMLARAEREKKLGSGLNDIFEAQKIEWH
modifications: chain 1: biotinylated in vivo on the C-terminal avidin-tag (E. coli BirA strain). The patent does not name the residue; it is presumably the tag's Lys, pos 90, written K.
notes: also called tagged synNAPS 8
B16: the binding result in [4], in [5], in test [6], in test [7] and in test [8] was “no binding (tested: 10 nM)” each time. The “Binding to Insecticidal Protein” value in [9] came out at 1.6 absorbance 405 nm.

B17: synNAPS-7 ligand (designed binder)
chain: MVKVKFKVHGKEKEVDTSKILAVARWGKAVIFAYDDNGKHGRGQVSEKDAPKELLDMLARAEREKK
Take B17: the binding result in test [10] was “binds”.

B18: synNAPS-6 ligand (designed binder)
chain: MVKVKFMRWGEEKEVDTSKITYVTRWGKTVIFYYDDNGKKGHGSVLEKDAPKELLDMLARAEREKK
With B18, in [10], the binding result is “binds”.

B19: synNAPS-1 ligand (designed binder)
chain: MVKVKFGPWGEEKEVDTSKIVDVWRWGKYVDFFYDDNGKVGIGSVTEKDAPKELLDMLARAEREKK
On to B19, for which the binding result in test [1] is “binds”.

B20: synNAPS-11 ligand (designed binder)
chain: MVKVKFGLGGEEKEVDTSKIRRVLRLGKLVSFTYDDNGKIGLGDVHEKDAPKELLDMLARAEREKK
Consider B20, for which the binding result in test [13] is listed as “binds”.

B21: synNAPS-5 ligand (designed binder)
chain: MVKVKFVLKGEEKEVDTSKITYVARYGKFVQFDYDDNGKFGAGVVLEKDAPKELLDMLARAEREKK
Consider B21, for which, in [1], the binding result was “binds”.

B22: synNAPS-3tag ligand (designed binder)
chain: MRGSHHHHHHGSVKVKFRWGGEEKEVDTSKIWYVARVGKWVLFGYDDNGKRGAGRVREKDAPKELLDMLARAEREKKLGSGLNDIFEAQKIEWH
modifications: in vivo biotinylation (E. coli BirA strain) on the C-terminal avidin-tag
notes: also called tagged synNAPS 3
Consider B22, for which the binding result in test [5], in test [6], in [14] and in test [7] was “no binding (tested: 10 nM)” each time. Besides, the entries for the “Binding to Insecticidal Protein” value in [15] and in test [16] were 0.75 absorbance 405 nm and 1.5 absorbance 405 nm, respectively.
